Results published in PMC3706390.

Tests used:
Experiment in all cases: EMSA
Conditions in all cases: 30 mM Tris-HCl pH 8.0, 75 mM KCl, 5 mM MgCl2, 1 mM DTT, 0.04 ug/uL BSA, 10% glycerol, 50 ng/uL yeast tRNA, 30 C 15 min; EMSA gels 0.5X TBE at 4 C; RNase …
L30 L35A L35A (rat) = L30 L35A L35A (rat) (UniProt P62890)
L30 Y89A Y89A (rat) = L30 Y89A Y89A (rat) (UniProt P62890)
L30 K36A K36A (rat) = L30 K36A K36A (rat) (UniProt P62890)
L30 K87A K87A (rat) = L30 K87A K87A (rat) (UniProt P62890)

Substance: PHGPx SECIS 102 nt (REMSA)
- binding signal (% of WT binding) (L30 L35A L35A (rat)): 86
- binding signal (% of WT binding) (L30 Y89A Y89A (rat)): 32
- binding signal (% of WT binding) (L30 K36A K36A (rat)): 78
- binding signal (% of WT binding) (L30 K87A K87A (rat)): 60
